Biological target: T1, ERG (33-479) R367K (UniProt P11308 33-479, R367K)
T1 sequence: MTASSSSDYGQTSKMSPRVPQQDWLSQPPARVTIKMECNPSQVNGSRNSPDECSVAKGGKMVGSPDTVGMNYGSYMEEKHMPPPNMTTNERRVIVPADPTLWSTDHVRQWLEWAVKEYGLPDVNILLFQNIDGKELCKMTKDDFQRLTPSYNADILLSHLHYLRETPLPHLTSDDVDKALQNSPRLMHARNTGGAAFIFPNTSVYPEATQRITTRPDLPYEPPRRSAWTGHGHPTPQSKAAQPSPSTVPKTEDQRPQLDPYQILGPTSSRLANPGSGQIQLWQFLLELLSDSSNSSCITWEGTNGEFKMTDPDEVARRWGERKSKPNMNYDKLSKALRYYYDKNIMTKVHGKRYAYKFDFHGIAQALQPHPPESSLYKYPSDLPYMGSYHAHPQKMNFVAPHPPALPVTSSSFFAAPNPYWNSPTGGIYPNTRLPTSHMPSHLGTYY
Assay: EMSA

B1: IRD800-Py (polyomavirus enhancer probe) (dsDNA)
DNA 1: GATCTTTAAGCAGGAAGTGACTAACTGACCGCAGGTGGATC
DNA 2: GATCCACCTGCGGTCAGTTAGTCACTTCCTGCTTAAAGATC
binding result: no binding

Reference: article PMC6140332
